According to patent publication USRE39433 (MEDVET SCIENCE, dated 2006):
One block for each molecule: values may come before it.

What was measured:
[1] = target: IL-5R α-chain co-expressed with Y421A βc on COS cells (human) (UniProt Q01344); experiment: Scatchard (LIGAND) of radio-iodinated IL-5 on COS cells with IL-5R α-chain and Y421A βc; single receptor class
[2] = target: IL-5R α-chain co-expressed with mutant ^418AAAYA^422 βc on COS cells (human) (UniProt Q01344); experiment: Scatchard (LIGAND) of radio-iodinated IL-5 on COS cells with IL-5R α-chain and ^418AAAYA^422 βc; single receptor class
Chain of IL-5R α-chain co-expressed with mutant ^418AAAYA^422 βc on COS cells (human) (Q01344 21-420, stated change not applied, chain 1 of 2): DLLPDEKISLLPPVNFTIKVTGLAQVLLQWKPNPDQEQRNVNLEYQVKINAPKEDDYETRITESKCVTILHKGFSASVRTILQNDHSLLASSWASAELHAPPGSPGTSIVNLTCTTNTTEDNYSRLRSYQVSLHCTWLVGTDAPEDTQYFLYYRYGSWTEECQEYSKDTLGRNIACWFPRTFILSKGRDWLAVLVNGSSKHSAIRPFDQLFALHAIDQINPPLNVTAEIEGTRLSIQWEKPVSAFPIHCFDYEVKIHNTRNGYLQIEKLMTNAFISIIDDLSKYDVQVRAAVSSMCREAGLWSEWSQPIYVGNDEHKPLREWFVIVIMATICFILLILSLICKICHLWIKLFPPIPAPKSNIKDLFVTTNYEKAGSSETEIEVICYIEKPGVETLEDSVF
Chain of IL-5R α-chain co-expressed with mutant ^418AAAYA^422 βc on COS cells (human) (P32927 other isoform, or with tags, fused parts or gaps mutant, chain 2 of 2, further chain): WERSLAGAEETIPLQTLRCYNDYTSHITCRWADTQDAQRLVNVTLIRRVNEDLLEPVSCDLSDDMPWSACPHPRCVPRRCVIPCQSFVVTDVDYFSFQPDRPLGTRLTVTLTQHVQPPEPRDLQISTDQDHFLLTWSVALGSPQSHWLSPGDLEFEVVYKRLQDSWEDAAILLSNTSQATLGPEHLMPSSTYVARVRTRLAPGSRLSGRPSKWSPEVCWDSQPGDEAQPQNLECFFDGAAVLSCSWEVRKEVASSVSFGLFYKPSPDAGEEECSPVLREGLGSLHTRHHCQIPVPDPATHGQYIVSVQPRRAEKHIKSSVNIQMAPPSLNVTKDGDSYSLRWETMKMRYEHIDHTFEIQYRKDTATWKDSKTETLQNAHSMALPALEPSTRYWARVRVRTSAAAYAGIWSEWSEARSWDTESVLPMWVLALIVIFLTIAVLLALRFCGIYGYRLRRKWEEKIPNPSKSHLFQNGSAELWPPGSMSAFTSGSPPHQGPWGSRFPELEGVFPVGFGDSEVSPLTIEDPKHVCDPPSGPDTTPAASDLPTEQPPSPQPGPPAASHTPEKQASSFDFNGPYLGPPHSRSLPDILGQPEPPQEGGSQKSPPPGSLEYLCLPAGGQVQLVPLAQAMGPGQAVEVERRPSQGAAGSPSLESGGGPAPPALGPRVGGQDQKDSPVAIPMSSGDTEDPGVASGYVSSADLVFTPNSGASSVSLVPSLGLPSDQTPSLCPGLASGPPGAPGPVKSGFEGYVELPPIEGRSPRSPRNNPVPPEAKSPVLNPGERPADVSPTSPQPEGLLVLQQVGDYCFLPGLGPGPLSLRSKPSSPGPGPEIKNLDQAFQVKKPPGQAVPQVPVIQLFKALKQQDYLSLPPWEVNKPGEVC

[3] = target: IL-3R α-chain co-expressed with Y421A βc on cells (human) (UniProt P26951); experiment: cell-based or functional assay
Chain of IL-3R α-chain co-expressed with Y421A βc on cells (human) (P26951 19-378, chain 1 of 2): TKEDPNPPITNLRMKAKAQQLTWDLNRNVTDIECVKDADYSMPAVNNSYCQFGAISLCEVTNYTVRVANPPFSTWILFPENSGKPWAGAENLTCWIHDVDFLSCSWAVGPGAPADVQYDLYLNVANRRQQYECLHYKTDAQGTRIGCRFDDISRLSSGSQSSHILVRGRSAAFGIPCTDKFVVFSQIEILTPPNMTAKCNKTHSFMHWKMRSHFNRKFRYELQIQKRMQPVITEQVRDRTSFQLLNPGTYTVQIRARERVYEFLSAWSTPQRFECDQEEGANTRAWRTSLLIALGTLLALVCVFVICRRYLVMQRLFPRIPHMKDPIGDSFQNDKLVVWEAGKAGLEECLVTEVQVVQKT
Chain of IL-3R α-chain co-expressed with Y421A βc on cells (human) (P32927 17-897 Y421A, chain 2 of 2, further chain): as the sequence (P32927 other isoform, or with tags, fused parts or gaps mutant, chain 2 of 2, further chain) above, with A402R, A403T, A404G, Y405A, A406N counted along it

[4] = target: IL-3R α-chain co-expressed with R418A βc on COS cells (human) (UniProt P26951); experiment: radioligand saturation binding on transfected COS cells
Chain of IL-3R α-chain co-expressed with R418A βc on COS cells (human) (P26951 19-378, chain 1 of 2): as the sequence (P26951 19-378, chain 1 of 2) above
Chain of IL-3R α-chain co-expressed with R418A βc on COS cells (human) (P32927 17-897 R418A, chain 2 of 2, further chain): as the sequence (P32927 other isoform, or with tags, fused parts or gaps mutant, chain 2 of 2, further chain) above, with A403T, A404G, A406N counted along it

[5] = target: IL-3R α-chain co-expressed with mutant ^418AAAYA^422 βc on COS cells (human) (UniProt P26951); experiment: as above
Chain of IL-3R α-chain co-expressed with mutant ^418AAAYA^422 βc on COS cells (human) (P26951 19-378, stated change not applied, chain 1 of 2): as the sequence (P26951 19-378, chain 1 of 2) above
Chain of IL-3R α-chain co-expressed with mutant ^418AAAYA^422 βc on COS cells (human) (P32927 other isoform, or with tags, fused parts or gaps mutant, chain 2 of 2, further chain): as the sequence (P32927 other isoform, or with tags, fused parts or gaps mutant, chain 2 of 2, further chain) above

[6] = target: IL-3R α-chain co-expressed with G420A βc on COS cells (human) (UniProt P26951); experiment: Scatchard (LIGAND) of 125I-IL-3 on COS cells with α-chains and G420A βc; high affinity site 1
Chain of IL-3R α-chain co-expressed with G420A βc on COS cells (human) (P26951 19-378, chain 1 of 2): as the sequence (P26951 19-378, chain 1 of 2) above
Chain of IL-3R α-chain co-expressed with G420A βc on COS cells (human) (P32927 17-897 G420A, chain 2 of 2, further chain): as the sequence (P32927 other isoform, or with tags, fused parts or gaps mutant, chain 2 of 2, further chain) above, with A402R, A403T, A406N counted along it

[7] = target: IL-3R α-chain co-expressed with N422A βc on COS cells (human) (UniProt P26951); experiment: Scatchard (LIGAND) of 125I-IL-3 on COS cells with α-chains and N422A βc; high affinity site 1
Chain of IL-3R α-chain co-expressed with N422A βc on COS cells (human) (P26951 19-378, chain 1 of 2): as the sequence (P26951 19-378, chain 1 of 2) above
Chain of IL-3R α-chain co-expressed with N422A βc on COS cells (human) (P32927 17-897 N422A, chain 2 of 2, further chain): as the sequence (P32927 other isoform, or with tags, fused parts or gaps mutant, chain 2 of 2, further chain) above, with A402R, A403T, A404G counted along it

[8] = target: IL-3R α-chain co-expressed with R418A βc on COS cells (human) (UniProt P26951); experiment: Scatchard (LIGAND) of 125I-IL-3 on COS cells with α-chains and R418A βc; high affinity site 1
[9] = target: IL-3R α-chain co-expressed with T419A βc on COS cells (human) (UniProt P26951); experiment: Scatchard (LIGAND) of 125I-IL-3 on COS cells with α-chains and T419A βc; high affinity site 1
Chain of IL-3R α-chain co-expressed with T419A βc on COS cells (human) (P26951 19-378, chain 1 of 2): as the sequence (P26951 19-378, chain 1 of 2) above
Chain of IL-3R α-chain co-expressed with T419A βc on COS cells (human) (P32927 17-897 T419A, chain 2 of 2, further chain): as the sequence (P32927 other isoform, or with tags, fused parts or gaps mutant, chain 2 of 2, further chain) above, with A402R, A404G, A406N counted along it

[10] = target: IL-3R α-chain co-expressed with mutant ^418AAAYA^422 βc on COS cells (human) (UniProt P26951); experiment: Scatchard (LIGAND) of 125I-IL-3 on COS cells with α-chains and ^418AAAYA^422 βc; high affinity site 1
[11] = target: T1, IL-3R α-chain expressed on cells without βc (UniProt P26951 19-378, limits assumed); experiment: radioligand saturation binding, COS cells with α-chain only; range of affinities observed
T1 construct: whole, on cells; also called α-chain only; hIL-3Rα
T1 sequence (P26951 19-378 limits assumed): as the sequence (P26951 19-378, chain 1 of 2) above

[12] = target: T2, IL-3R α-chain co-expressed with wild type βc on cells (human, UniProt P26951 19-378; P32927 17-897); experiment: Scatchard (LIGAND) of 125I-IL-3 on COS cells with α-chains and wild type βc; high affinity site 1, low affinity site fixed at 50 nM
T2 construct: whole, on cells; The COS cells carried GM-CSFR and IL-3R α-chains together with βc; also called Wt βc
T2 sequence (P26951 19-378, chain 1 of 2): as above
T2 sequence (P32927 17-897, chain 2 of 2): as the sequence (P32927 other isoform, or with tags, fused parts or gaps mutant, chain 2 of 2, further chain) above, with A402R, A403T, A404G, A406N counted along it

Chain of IL-5R α-chain co-expressed with Y421A βc on COS cells (human) (Q01344 21-420, chain 1 of 2): as the sequence (Q01344 21-420, stated change not applied, chain 1 of 2) above
Chain of IL-5R α-chain co-expressed with Y421A βc on COS cells (human) (P32927 17-897 Y421A, chain 2 of 2, further chain): as the sequence (P32927 other isoform, or with tags, fused parts or gaps mutant, chain 2 of 2, further chain) above, with A402R, A403T, A404G, Y405A, A406N counted along it

Kd [1]: 1.86 nM
Kd [2]: 0.71 nM
Molecule: Human interleukin IL-5 (from UniProt P05113 20-134) (ligand)

STAT5-L activation (EMSA with STAT5 probe, phosphorimager) in transfected Jurkat cells; concentration for half maximal activation [3]: > 3 µM
fold reduction of high affinity binding against wild type βc [4]: 2 to 3 fold
fold reduction of affinity against wild type high affinity binding [5]: 3 fold
Kd [6]: 0.196 nM
Kd [7]: 0.08 nM
Kd [8]: 0.511 nM
Kd [9]: 0.151 nM
Kd [10]: 0.113 nM
Molecule: Human interleukin (IL)-3 (from UniProt P08700 20-152) (ligand)

Kd [11]: 20 to 100 nM
Kd [12]: 0.141 nM
B1: Human interleukin (IL)-3 (ligand, UniProt P08700 20-152, looked up)
chain: APMTQTTPLKTSWVNCSNMIDEIITHLKQPPLPLLDFNNLNGEDQDILMENNLRRPNLEAFNRAVKSLQNASAIESILKNLLPCLPLATAAPTRHPIHIKDGDWNEFRRKLTFYLKTLENAQAQQTTLSLAIF
modifications: radio-iodinated (125I) in the saturation binding studies
notes: unlabelled in the STAT5-L assays on Jurkat cells; also called ^125I-IL-3
